Measured values: the supplement of paper PMC10567573
± gives the standard deviation.

Test: protein stability index of a GFP-peptide fusion (GPS, HEK-293T) (PSI 1-6); higher = more stable
Conditions: c terminus: a fixed tail appended
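Further: 24-mer peptide tiles fused after GFP, lentivirally expressed, FACS-sorted into six equal bins by GFP/DsRed ratio, decoded by Illumina sequencing, PSI is the read-weighted mean bin number.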

Sequence	protein stability index (treatment: DMSO)	protein stability index (treatment: MLN4924 1 uM, 8 h)
LLPLVTLCDGNPRRPSPVLRHLEL [SCNN1D]	2.42 ± 0.42	2.27 ± 0.46
LLRPKYRAPQGCSGVDECARQEGL [PBXIP1]	3.56 ± 0.23	3.65 ± 0.37
LLRRSVEGASSDNGCEVKNRKSIL [PHTF1]	3.99 ± 0.17	4.05 ± 0.55
LLTRKVICKSDAPTGDVLLDEALK [GOLPH3]	2.51 ± 0.25	2.91 ± 0.39
LLTTSPVFPHYIEKPLGRVGVFLD [TRIM43]	2.08 ± 0.12	2.31 ± 0.25
LMRSQSPKAQPQTWKSGKQTMLSH [TRIM29]	3.34 ± 0.33	3.6 ± 0.28
LMRTCERLVKEGRFVPSNPIGILT [PPTC7]	2.65 ± 0.17	2.53 ± 0.23
LNGLQHLKAKKVWYDMFRDAAAIL [ZMAT5]	2.63 ± 0.56	2.49 ± 0.34
LNVATFLDPRYKRLPFLSAFERQQ [ZBED1]	2.37 ± 0.086	2.43 ± 0.42
LNVDAAVQQWLQKGTPASKLILGM [CHIT1]	2.21 ± 0.36	2.25 ± 0.39
LNVNLNSVVLRRARGGAVSARYVL [DUSP5]	2.19 ± 0.54	2.26 ± 0.51
LNYTYKRFEGLTQRGSIPTYMKAG [STK38L]	2.5 ± 0.18	2.67 ± 0.22
LPIKIAAIIASLTFLYTLLREVIH [STEAP1]	2.53 ± 0.41	1.82 ± 0.64
LPISTVREVALLRRLEAFEHPNVV [CDK4]	2.62 ± 0.21	2.71 ± 0.45
LPLPEQIHKASATIIEPAGESDNP [INTS4]	5.5 ± 0.26	5.49 ± 0.19
LQAFGETLLLELEQDSGVQVEGLT [ADAMTS4]	3.65 ± 0.63	3.79 ± 0.27
LQCDAVNLAFGRRCEELEDARYKL [TEKT4]	3.74 ± 0.26	3.64 ± 0.31
LQQIQGLIGGLEAQLSELRCEMEA [KRT15]	3.52 ± 0.43	3.67 ± 0.41
LQSELAGVADFSATYLRCQLLLIK [INTS4]	2.79 ± 0.46	2.57 ± 0.11
LQTDHYAALLGSNSESWGWDIGRG [SPSB2]	3 ± 0.032	3.02 ± 0.13
LQWKSSHFERRDNMNDNFLEGEEE [CHGB]	5.36 ± 0.44	5.49 ± 0.23
LRAPTISDLLNDQDLLDVIRIKLD [EDARADD]	2.11 ± 0.61	2.06 ± 0.29

Sequence	protein stability index (treatment: DMSO)	protein stability index (treatment: MLN4924 1 uM, 8 h)
LRLLREEEYVAPPRGPLPTLQVVP [TRAF3IP2]	2.96 ± 0.3	3.23 ± 0.14
LRMLEYEPAARISPLGALQHGFFR [DYRK1B]	2.51 ± 0.2	2.61 ± 0.33
LRRHAGLLDGLARRVGILGEELAD [SCARA5]	3.37 ± 0.17	3.34 ± 0.18
LRWERAWFPPAIMGVVSLVFLIIY [ARL6IP1]	3.17 ± 0.1	3.08 ± 0.31
LSASKDRTMRLWNIEEIDEIPLVI [WDR88]	2.19 ± 0.21	2.39 ± 0.14
LSELYEESSDLQMDVMPGEGDLPQ [EID1]	5.42 ± 0.47	5.12 ± 0.47
LSGTRESLAQGPDAATTDELSSLG [TBC1D10A]	5.23 ± 0.34	4.9 ± 0.24
LSHAGQKATAAFSNVGTAISKKFG [TPD52L1]	3.73 ± 0.23	3.66 ± 0.21
LSLDNSPLLQSIHQLDFVQVKASS [TRIM9]	2.73 ± 0.17	2.98 ± 0.42
LSQVELQAAPGALPVSSPEPPPAL [TRIM55]	4.79 ± 0.14	4.69 ± 0.21
LTAHLLPPRQALGSLCSPWAAPRV [YPEL3]	2.56 ± 0.36	2.45 ± 0.36
LTEQYTVTGLMEATQMMVDIDGDV [RHOBTB2]	4.66 ± 0.33	4.63 ± 0.29
LTMNSEDERRDAEERASLAGNRNS [KCNK9]	5.56 ± 0.082	5.5 ± 0.22
LTPADKAEHMKRQRHPRLRPQSAQ [AUP1]	4.36 ± 0.16	4.57 ± 0.28
LTRIRKWIEHSKLREINFKIVEFN [GLT8D2]	2.48 ± 0.44	2.51 ± 0.39
LTRLRTASGHEPGGSAVCASRVKL [PLEKHN1]	3.63 ± 0.17	3.61 ± 0.28
LVAHQRYHTGKTPFVCPECGQPCS [ZNF649]	3.62 ± 0.45	4.03 ± 0.51
LVATNAHLDHYYQEELPALLKALV [FCHSD1]	2.24 ± 0.23	2.19 ± 0.36
LVGDSDVGKGEILESLQDGAAESP [RAB40C]	5.35 ± 0.27	5.39 ± 0.3
LVQKDQHSFELDEKALASILLQDH [ATL3]	3.43 ± 0.35	3.38 ± 0.28
MAAAVAAAPGALGSLHAGGARLVA [AUH]	2.8 ± 0.58	3.12 ± 0.39
MAAWGKKHAGKDPVRDECEERNRF [FAM9B]	4.59 ± 0.23	4.62 ± 0.34
